# Results taken from the supplement of paper PMC12042874.
# ± gives the uncertainty stated by the source.
# Assay: amyloid nucleation score (Sup35N fusion, yeast selection) (log enrichment); library NNK3; higher = more nucleation; inactive = no reads after selection
# In short: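 The nucleation score is the log enrichment of output over input reads, calculated with DiMSum and centred on the mode score of non-aggregating sequences. Sequences with under 100 input reads were excluded. Reads came from Illumina sequencing of plasmid inserts from psi-negative yeast expressing Sup35N fused to peptides of 20 random codons, induced 24 hours with 100 μM copper sulfate and grown 7 days at 30°C without adenine and uracil.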
row,Substance,amyloid nucleation score
1,SSMYISAPSLCYLDFGLEKW,inactive
2,SSNDPQHHVDAGEADQRSRV,inactive
3,SSPCSVMVKVGSDHFERVAI,inactive
4,SSPRPLCPDLRLVDIIQILI,inactive
5,SSRAAVY,inactive
6,SSRINWSASLNSLTVTVD,inactive
7,SSSATGPAYGNKQATFRRLV,-0.457 ± 0.9
8,SSTPIFFLFFKSVQQVFNFP,0.722 ± 0.18
9,SSVKGTYIFIYDVVMLR,inactive
10,SSVVT,inactive
11,SSWFNGSLTVRQLIQRGRLF,inactive
12,SSYLI,inactive
13,SSYSWMGVFIYLDRIINYTH,-0.339 ± 0.63
14,SSYVLNYIHLSG,1.88 ± 0.08
15,STCLTD,inactive
16,STCYSCVMLMVGS,inactive
17,STDNVGMGKGWTGVIGWRVM,inactive
18,STDQSASRVSERQLLCLPLT,inactive
19,STDWDFHMRTFPGHVTKCWK,inactive
20,STLQVVEKPKIAPSLRCDSC,-0.169 ± 0.51
21,STMWYYMLVVIMRSCRAGDR,0.793 ± 0.17
22,STNSRFFSAYCSVVGMRRHA,inactive
23,STNWMVRLFYSRIEWGVNLG,inactive
24,STRAVQIRKSRGFAGYPGN,inactive
25,STRMRYICCSCLL,2.99 ± 0.078
26,STSFCSSLDLWSQEVIVASV,inactive
27,STTVTGLYKNFRHYVSGRCG,inactive

row,Substance,amyloid nucleation score
1,STVNVCYVSMGNWERLTDVR,0.446 ± 0.26
2,STYDRVKNLYVRRSAVVLPS,inactive
3,STYLMSFVLYWLWQRSLDTC,inactive
4,SVAGRCVSWNQRGKGLRNAR,inactive
5,SVASRTSEGTGYSCIIRVFH,inactive
6,SVDDFR,inactive
7,SVDVTFSVYHY,0.702 ± 0.19
8,SVERCVIRFCYLQGLYMAAF,inactive
9,SVERVLLRTVASVGGDVDVN,inactive
10,SVFDKGESGRRYGGEV,inactive
11,SVFPSLFNACSDLNSVHKVV,inactive
12,SVGKWMYRPSEYGACCASGY,inactive
13,SVIGTSTSFCLHWLWGWALC,inactive
14,SVLFSLYSSLSYV,0.548 ± 0.2
15,SVLLISVEYVAYEFLSHSVR,2.05 ± 0.097
16,SVNSVHLMRSSEVGTHEGVG,inactive
17,SVPDTLSDFISCPVNCTFLN,inactive
18,SVRGIKVNLWRKEDLYASTQ,inactive
19,SVSEFSFGSKCIVRRLGI,inactive
20,SVSRFKWGFKQAQWDKQRRY,inactive
21,SVSYFWFARL,-0.005 ± 0.98
22,SVTLGWSTRCCF,1.27 ± 0.096
23,SVVLRYVLRYNRSACESRRR,0.441 ± 0.21
24,SVWFGEIRNMGLIEEENRDW,inactive
25,SVWMGVEPGHYLYQRVLGLV,inactive
26,SVYDCQLVACHLMRDHKK,inactive
27,SVYGSVFKNRG,inactive

row,Substance,amyloid nucleation score
1,SVYQDCTGGNIPQFGSLAD,inactive
2,SWAVRMAGEYFRNSDMMWCA,inactive
3,SWCVDTSIQFPKAFNIVCGF,inactive
4,SWKGGLQTDDGSKGS,inactive
5,SWLNKIAKVIST,inactive
6,SWMSI,inactive
7,SWRHSCNTRSNDYNIDWE,inactive
8,SWRPAICPLLVMKL,inactive
9,SWSRYNDC,inactive
10,SWVCCF,inactive
11,SWVFFD,inactive
12,SWWKDLVYD,inactive
13,SWYDVRSVPKSMVAMMGWRL,inactive
14,SWYEYCLINSLRKGSGYKEP,inactive
15,SYCDVFTGNNLHLVVSFFYS,2.7 ± 0.053
16,SYCYSIAMLAMIFLLMQCVI,-0.011 ± 0.43
17,SYDVNTDFVLCDYSRDTGSQ,inactive
18,SYGGYQFLYVNSDKLRV,inactive
19,SYGLTHMSKAIGDHRVVIAT,inactive
20,SYILRLSHFITVGLFWAEMQ,inactive
21,SYLVRCVARNLLCFERVRGS,inactive
22,SYNCA,inactive
23,SYNHEKLK,inactive
24,SYNKEKVSKTFVGCPTRSMV,inactive
25,SYNVFPIAEDKNHWNTFC,inactive
